Laboratory results from PMC6036645.

Target: Leptospira interrogans thermolysin encoded by LIC13322, prothermolysin fragment PepSY-M4 (74 kDa) (Leptospira interrogans)
Experiment: SEC

Substance: Leptospira interrogans thermolysin encoded by LIC13322, prothermolysin fragment PepSY-M4 (74 kDa) (enzyme)
- stoichiometry N: 2
